Assay results published in IntAct's records for PubMed 31243363.

B1: Phospholipid-transporting ATPase DRS2 (Saccharomyces cerevisiae), P39524 (parent)
chain: MNDDRETPPKRKPGEDDTLFDIDFLDDTTSHSGSRSKVTNSHANANYIPPSHVLPEETIDLDADDDNIENDVHENLFMSNNHDDQTSWNANRFDSDAYQPQSLRAVKPPGLFARFGNGLKNAFTFKRKKGPESFEMNHYNAVTNNELDDNYLDSRNKFNIKILFNRYILRKNVGDAEGNGEPRVIHINDSLANSSFGYSDNHISTTKYNFATFLPKFLFQEFSKYANLFFLCTSAIQQVPHVSPTNRYTTIGTLLVVLIVSAMKECIEDIKRANSDKELNNSTAEIFSEAHDDFVEKRWIDIRVGDIIRVKSEEPIPADTIILSSSEPEGLCYIETANLDGETNLKIKQSRVETAKFIDVKTLKNMNGKVVSEQPNSSLYTYEGTMTLNDRQIPLSPDQMILRGATLRNTAWIFGLVIFTGHETKLLRNATATPIKRTAVEKIINRQIIALFTVLIVLILISSIGNVIMSTADAKHLSYLYLEGTNKAGLFFKDFLTFWILFSNLVPISLFVTVELIKYYQAFMIGSDLDLYYEKTDTPTVVRTSSLVEELGQIEYIFSDKTGTLTRNIMEFKSCSIAGHCYIDKIPEDKTATVEDGIEVGYRKFDDLKKKLNDPSDEDSPIINDFLTLLATCHTVIPEFQSDGSIKYQAASPDEGALVQGGADLGYKFIIRKPNSVTVLLEETGEEKEYQLLNICEFNSTRKRMSAIFRFPDGSIKLFCKGADTVILERLDDEANQYVEATMRHLEDYASEGLRTLCLAMRDISEGEYEEWNSIYNEAATTLDNRAEKLDEAANLIEKNLILIGATAIEDKLQDGVPETIHTLQEAGIKIWVLTGDRQETAINIGMSCRLLSEDMNLLIINEETRDDTERNLLEKINALNEHQLSTHDMNTLALVIDGKSLGFALEPELEDYLLTVAKLCKAVICCRVSPLQKALVVKMVKRKSSSLLLAIGDGANDVSMIQAAHVGVGISGMEGMQAARSADIAVGQFKFLKKLLLVHGSWSYQRISVAILYSFYKNTALYMTQFWYVFANAFSGQSIMESWTMSFYNLFFTVWPPFVIGVFDQFVSSRLLERYPQLYKLGQKGQFFSVYIFWGWIINGFFHSAIVFIGTILIYRYGFALNMHGELADHWSWGVTVYTTSVIIVLGKAALVTNQWTKFTLIAIPGSLLFWLIFFPIYASIFPHANISREYYGVVKHTYGSGVFWLTLIVLPIFALVRDFLWKYYKRMYEPETYHVIQEMQKYNISDSRPHVQQFQNAIRKVRQVQRMKKQRGFAFSQAEEGGQEKIVRMYDTTQKRGKYGELQDASANPFNDNNGLGSNDFESAEPFIENPFADGNQNSNRFSSSRDDISFDI
partner: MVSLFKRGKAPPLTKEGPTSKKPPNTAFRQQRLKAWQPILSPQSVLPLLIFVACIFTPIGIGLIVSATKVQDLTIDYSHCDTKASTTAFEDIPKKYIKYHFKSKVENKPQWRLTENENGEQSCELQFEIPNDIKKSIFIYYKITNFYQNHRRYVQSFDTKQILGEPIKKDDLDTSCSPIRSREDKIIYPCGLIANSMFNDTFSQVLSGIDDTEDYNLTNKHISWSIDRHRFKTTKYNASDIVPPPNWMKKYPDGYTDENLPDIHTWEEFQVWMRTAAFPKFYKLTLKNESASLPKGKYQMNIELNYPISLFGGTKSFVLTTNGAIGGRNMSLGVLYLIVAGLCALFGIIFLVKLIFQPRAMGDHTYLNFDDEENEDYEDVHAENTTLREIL

Variants of: B1
Details: with cdc50_yeast CDC50, P25656

effect of a mutation on the interaction	Variant
with no effect	Y1235A
with no effect	Y1235F
with no effect	H1236A
